Test results as given in the DeepSol protein solubility set.

Assay: soluble on expression in E. coli; label from the status in PepcDB or PDB records

| Sequence | soluble on expression in E. coli |
| --- | --- |
| MSLSLPRWKQIVHMLYLKMEFISGGELGEALAVNPRTIRNDIKVINQILMIGGNRIESLPGVGYRLVIGDEKALREALLDDSIGRANMNIVPMFAEDRADYIIRYLLLKNDYVKLETLSEELFVSKSTINLDILEVKRKLKENELKVEKRAGYGIRITGAELAIRFCFSRYLLVESTSPLITETEINFFGEVNLEMMEQIVVSNIAKYNIHMTDISVKNLIIHIAIAVCRVKDNCYVPATDLEDIEFSMPELRAAQGIIKEIDLSEGIRFPESETAYLLLHLSSKNRKSDFNNYREYIIVDKMLEKIKELYGYDFKQDQKMISNIALHLKPAINRIKFNMNIQNPYLKNLKANYPLAFELGLVAKEVLEQELKTNVDEAEVGYLAIHFLYGLDKEEGHHHHHH | soluble |
| GHHHHHHHHHHSSGHIEGRHNMPVVIKTEGPAWTPLEPKLITRLADTVRTKGLRSPITMAEVEALMSSPLLPHDVTNLMRVILGPAPYALWMDAWGVQLQTVIAAATRDPRHPANGQGRGERTNLDRLKGLADGMVGNPQGQAALLRPGELVAITASALQAFREVARLAEPAGPWADITQGPSESFVDFANRLIKAVEGSDLPPSARAPVIIDCFRQKSQPDIQQLIRAAPSTLTTPGEIIKYVLDRQKIAPLTDQGIAAAM | soluble |
| MSGDGDSSTTSSAGDGSTSKDKIPAFSEIRVIEVNRDNFAKIWPYLLVCIKSADFTAIDLELSGLGGKGLRSRDIAERYQAIRDAAHTRSILSVGIATMKLTHKSEKRRALRYETQVFNILTFSEKPFTIEPSALQFLAKHSFDFNRLIQSGVRFQGANCPLKTLFRELLGSSATFCLHNGFIDLAFIYKQLYDIDLPDTLDGFVNNLSDMFPDNYLPVADSKYLAEYQTRMTASFLEYVFRRTQGDNEIERQNNRYHIEICFPSSEKSIKALKNATESVDVRLPEGFPDHAIPIDLHIHVCKYFAYHGFCHARNTEKGCKLLHDVDTAIDLQRIKENKKAFKRKRRYNNVIAESVAEKTGTDEEAWKNAKFEQNLLTRDFRELKRNVVTGLHRAGVDAFMTAFAVIYQQRRTLMADNSVDLKFLNRVPLSAKDKPLHLRHRPVPVPQSEQIDAHLEAMVEINKQRDYIRMNAAATVIKSVQKEDTPCED | not soluble |
| MGHHHHHHGGHMSLTTSTPSNRILVVMSSAAQIPLQDGKNHNTGYFLNEFGVPAKRLTDAGYELVIATPRGSVPGMDHNSDHDMFFKNKEEHNEIKAFVGDVLSNTTIQTTEAVAAEGTQAYAALFLPGGHAPMADLMADPALGEILRQFHAAAKPTALICHAPTALLAAQADPVAFQKGMEAGEQPSAQDFTYQGYRVTVFANDEEEATEKTFEAPMLYYPADALTQGGAQVENGEAMKPNVVRDRELLTGQNPFSDEPFVAQLLEMLGEGGS | soluble |
| TSNFFCGEPIDYRGITAHRLVGAEPRPPVSGTRYAKVPGVPDEYKTGYRPANLGRSDPDSDKSLMNIAVKNLQVYQQEPKLDKVDEFIERAAADVLGYLRFLTKGERQANLNFKAAFNTLDLSTSCGPFVPGKKIDHVKDGVMDQVLAKHLYKCWSVANSGKALHHIYACGLKDELRPLDKVKEGKKRLLWGCDVGVAVCAAAVFHNICYKLKMVARFGPIAVGVDMTSRDVDVIINNLTSKASDFLCLDYSKWDSTMSPCVVRLAIDILADCCEQTELTKSVVLTLKSHPMTILDAMIVQTKRGLPSGMPFTSVINSICHWLLWSAAVYKSCAEIGLHCSNLYEDAPFYTYGDDGVYAMTPMMVSLLPAIIENLRDYGLSPTAADKTEFIDVCPLNKISFLKRTFELTDIGWVSKLDKSSILRQLEWSKTTSRHMVIEETYDLAKEERGVQLEELQVAAAAHGQEFFNFVCRELERQQAYTQFSVYSYDAARKILADRKRVVSVVPDDEFVNVME | soluble |
| NTEEKFVRAEEKAKRSKMLIDMKSEQYNMITEKIEKTRKSRHDIHHHINVVYQLAKENKIEQLIEYLEEYNKIYSTKEPMVYCNNSTVDAILNHYILLAKDNGIEVHLNVALPEELKIRDTDLCIVIGNLLENAIEASEKEENKRIKLRINRSNEYICMLVSNLYNGEIKKGHSGYYSRKREFKDTGIGLSSVSAVVEKYDGRMEVDHTNGEFNVFIMMANISSNLT | not soluble |
| GIIEAHCHVGIQEEKRGFEGNDCNEMTNPVTPYLRALDGINPMDSAFYTALTAGITGIMVGPGSANVVGGQWMFLKTYGRAIDKMVVLQPSAMKIAFGENPKANYDKKNMMPSTRIAIAAMLREELFEAQQYYEKRKNAEKSGDSFNKEFRKECWVPVFDKKIPLKAHVHRADDILTAIRIAKEFNLNLTLDHCTEGHLVAKEIKESGFPAIVGPTLTSRNKIETQYADFKTAGILHNEGVKVAITTDHPVTRIQDLLICAGLAAKEGLGIEEGLKAITINPAEICNVANRVGSIEVNKDADIAIFDGNPMETFTKTMYTIINGEIVY | not soluble |
| TTGNEPPVTQIVDKHRIALALGGGAARGWAHIGVLRALDEAGVKIGMIAGTSIGALVGGCYLAGKLDELEEFARSLTMRRIAGLLDLTIGGGGLFGGMRLTKRMQEHLEGLRVENLEHPFIAVATELRTGHEVWIHQGDLVTALRSSYALPGIFEPVQCNGRTLIDGALVNPVPVSVCRAYEQALVVAVNLNYDLFGRSA | not soluble |
| QLEKELEESAARYNQLAAQSRTITWEIDVTGLFTYVSPVVESVFGYLPNELVGAMRFYEIHPTEGRERFKTSFLEMFASKTIVEEVVHPVVAVDGRTIWMSTNALPILDEHGTLVGYRGACTDIS | not soluble |
| VIVYGDYNNDGNVDALDFAGLKKYIMAADHAYVKNLDVNLDNEVNSTDLAILKKYLLGMVSKLPSN | soluble |
| MSELMQAILDSEEKHDLRGFISELRQQDKNYLLRNDILNVYAEYCSKCQKPETSYKFSNLSKLIYYTQEIIQEDSNFCFIIRPKIAAQEVYRLTADLDVEPMTVQELLDLRDRLVNKFHPYEGDILELDFGPFYDYTPTIRDPKNIGKGVQYLNRYLSSKLFQDSQQWLESLFNFLRLHNYNGIQLLINHQIQSQQQLSQQVKNALNFVSDRPNDEPYEQFRLQLQTMGFEPGWGNTASRVRDTLNILDELIDSPDPQTLEAFISRIPMIFRIVLVSAHGWFGQEGVLGRPDTGGQVVYVLDQAKNLEKQLQEDAILAGLEVLNVQPKVIILTRLIPNSDGTLCNQRLEKVYGTENAWILRVPLREFNPKMTQNWISRFEFWPYLETFAIDSERELLAEFQGRPDLIVGNYTDGNLVAFLLTRRMKVTQCNIAHALEKSKYLFSNLYWQDLEEKYHFSLQFTADLIAMNAANFVISSTYQEIVGTPDSIGQYESYKCFTMPELYHVVNGIELFSPKFNVVPPGVNENSYFPYTQTQNRIESDRDRLEEMLFTLEHHHHHH | not soluble |
| MGSDKIHHHHHHMNGFCARLRAITHNERLKMKIAVLLSGGVDSSYSAYSLKEQGHELVGIYLKLHASEKKHDLYIKNAQKACEFLGIPLEVLDFQKDFKSAVYDEFINAYEEGQTPNPCALCNPLMKFGLALDHALKLGCEKIATGHYARVKEIDKISYIQEALDKTKDQSYFLYALEHEVIAKLVFPLGDLLKKDIKPLALNAMPFLGTLETYKESQEICFVEKSYIDTLKKHVEVEKEGVVKNLQGEVIGTHKGYMQYTIGKRKGFSIKGALEPHFVVGIDAKKNELVVGKKEDLATHSLKAKNKSLMKDFKDGEYFIKARYRSVPAKAHVSLKDEVIEVGFKEPFYGVAKGQALVVYKDDILLGGGVIV | not soluble |
| MKFDFPQVDLPCEILAWNDVTEDILNIYKQSCRLKAGIFAICTEGKMTATINLIDYEIKPNDLITLLPGTIIQFRERTEKVRLCFAGFSSECVERINLIKSMVSSFSKITECPIVELQEDIASYLIDYFSLLARVTCDEKLSLPSEMTEVSLRSILTAVGLIYQRYSSKNHNTNRKEEICRELVGLVTEHYTEERRAQFYADKLGISLQHLSTTVKQVTGRNVLDVIAYVVIIDAKAKLKSSNMTIQEIAYSLNFPSASFFGKYFRRYVGMSPLEFRNS | not soluble |
| MGSDKIHHHHHHMAAIPTYKLYGEKTEVSGEFLLHCETLFSRSSLYRFEIDLHRHENFLQILYISEGQGDATLDGKVIAITPPAAIVVPPLFSHGFRFSRSIKGMIITVLPAALPLAVRTSLKQALPLPLHMPLEGEPCAIEISLLMERIADEYAGAKPGRNGLLEAYLATVVLLLARQAAPDASQDLMTLTANDRRMEKLAALIAANFRSHKTAAFYAREMGLSPTHLNRLAKAGTGATLQQLIARKQLEIAQQELIFSQTSIQAIALNHGFTDPAYFTRFFTRETGLTPRAWRLAERQKLQNLSDRAQAEISAATASE | not soluble |
| VSYVSVLPATLATAATEVARIGSALSLASAVAAAQTSAVQAAAADEVSAAIAALFSAHGRDFQALSARAAAFHHEFVQALAAGAGSYAVAEIAAASPLQSLIDVFNAPIQAATGRPLIGNGANGQPGTGAPGGPAGG | soluble |
| MSGIPSQGVASGMREAARALLAVLEPEQVRELRAGPDRLDTPELREWTYLPGPRPGLSTEGLDGRQREVVDALLTTAHSAAGAELVRGAIEVERHPRARAGHPGPDRYWVRLLGDPGGDEPWGWRLNGHHLAVHVLVTAAGVRVTPHFVGAEPARTGNGPRPGLRPLGPEEDLARELITSLGGTARASALFAATPPDDILTRADPFADPGLLPEGLRYDRLAPGQQRLLERLVGRYLDRAPEAYARECWSDAVRRGLGSLSFAWAGGLAPGDRHYYCVRAPDFLIEYDNTQDDGNHAHSVWRHVRHDWGTDLLRGHYTEQHFLEHHHHHH | not soluble |
| ATGDTAATAAPAKAEKTAGSVLRDAKRVIIVPGYGMALAQAQHQVRQLADKLTANGTEVRYAIHPVAGRMPGHMNVLLCEADVPYDQLFEMDAINGDFAQTDAVVVIGANDVMNPAARNAEGTPIYGMPVLNVDDAPEVIICNFDLKPGYAGVDNPLYTRATGVFLKLGDAKESLAEIMKEMDIA | not soluble |
| MGSDKIHHHHHHMTAATQAKHTPDDLSVAPRDIRFDLTSAQKGHWLGGDPVGTAVFNALSLTFPDGERMFMDAVKAYRDRLSGKLLEDAKGFIAQEAIHSREHHHLNSLIDRERYPVAEIEETIRGRVKMARERGPMAMLISTIALEHFTAMMAEMHARHRNLFDTTDPEIEKLWRWHAVEETEHKAVAYDVFLEVTKDWSPLKRYMIRCRAMVFVTIMFTRNISRYAARLLEADGYTPKAALKAVKRFVWGDPGIFRRGWKTYFAWYRPGFHPWDQDDRPLVADWMAEFNAAAVRV | not soluble |
| MGSDKIHHHHHHMTSDDLLPYGYIDAHHHVWAPDSHGDAIGYGWLRDIGAMKPFGDPTPIQRDYLMAEFLSEAPDAPRASVHVQTDGTLPDPVAETRFVQAQADATDHPVKIVGLADLGAEDLTGTLDRHAESRDFCGVRQIAARLDHRPDLTFAPQDYLADEQWVNGLKILEDRGLTFDLQIYPEQAEAALEALSATPALTVIIDHALCPYDPAKITQWQAAVALMAARDNTFIKLSGWGMYDAEWDLNGGVSVQPLVSHILERFGADRVMWGSNFPVEKLATRYETCRDVHLDMVPEDAHQDVFFNSAAKTYGLTLT | not soluble |
| MGSDKIHHHHHHMNWSQIISLVSAGNYMEVEKILQDYPYIVDMADHLREQKLKVIANLDTYVKRTMDSVEKLGGHAYLAKDKDEARKIIGDLVGEKKTVVFSKTNVAYEIGLREFLQERNNEVWETDLGEYLVQISRGWPTHIVAPALDMTREEAAKAVKKIDPSINENSKIEDIVAAVRKFLMSKYVKADVGITGANAVAADSGSVALVENEGNIRIDTVMPPMHIAVTGIDKIVPTMRDALDEVMVQAAYAGIFPPTYINVTSGPSSTADIELRRVSPATGPKDFHLVLIDNGRLEASKNEDLKEALLCIKCGRCYFSCPIYRTLGKEWISTKSPYNGPTGVMWNYITNKDPWPASYCVHSGGCKEVCPMKINIPEVIKYIKFIGSKQVGK | not soluble |
